Among the data in patent US20240317847A1 (Bayer, published 2024) are IC50 values, retold here.

Experiment [1] has as its target T1, human IL-11 (human, UniProt P20809 22-199).
T1 construct: Invigate, e.g. lot #C121021-19; biotinylated where coated in the ELISA; also called hIL-11; hIL11
T1 sequence: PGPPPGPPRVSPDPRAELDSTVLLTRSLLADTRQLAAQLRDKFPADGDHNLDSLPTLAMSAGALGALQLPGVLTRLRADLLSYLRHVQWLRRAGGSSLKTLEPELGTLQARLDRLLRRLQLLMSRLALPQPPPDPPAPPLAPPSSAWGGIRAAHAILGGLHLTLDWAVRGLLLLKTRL
In words: Di-complex ELISA, competitor canine IL11RA-Fc on coated IL-11; Di-complex ELISA (blocking of IL-11/IL-11Ra), weak partial inhibition, efficacy 17.4%. As for the experimental part: The assay is performed using streptavidin coated microtiter plates (Greiner bio-one, #781997). In a first step, 10 nM biotinylated mouse IL-11 (Invigate, Germany, e.g., lot #C210819-09) or human IL-11 (Invigate, Germany, e.g., lot #C121021-19) is coated in 25 μl PBS on the plate at 4° C. overnight. Next day, the plate is washed three times with 50 μl PBST and then blocked with 50 μl SmartBlock (Candor, #113125) for one hour at room temperature (RT). After additional three washes with PBST, 25 μl of a mixture of the murine anti IL-11 antibody and recombinant canine IL11RA-Fc fusion protein (Sino Biological, #70078-D02H) in PBS-T, 10% Smartblock are added simultaneously to the plate and incubated for one hour at RT. […] After three additional washes with PBS-T, 25 μl anti-human-POD (Sigma, #A0170) in PBS-T, 10% Smartblock is added and incubated for 1 hour at RT. After a final three washes with PBS-T, 25 μl AmplexRed (Fisher Scientific, A12222), 1/1000 in PBS, 0,003% H₂O₂, is added as substrate and incubated for 15 min at RT in the dark. Then, the fluorescence is measured with a plate reader at 535/595 nm. […] Efficacy was calculated as [(signal measured at lowest antibody concentration−signal measured at the highest antibody concentration)×100] divided by (signal measured at lowest antibody concentration−signal measured in the absence of IL11Ra). […]

The target of experiment [2] is T2, human IL-11 (human, UniProt P20809 22-199).
T2 construct: Invigate recombinant protein; biotinylated when immobilized in the Di-complex ELISA; also called hIL11; hIL-11
T2 sequence: T1 sequence
In words: Tri-complex ELISA, hIL-11 + mIL-11Ra-Fc + hgp130-Fc, inhibition of complex formation; Tri-complex ELISA (IL-11/IL-11Ra/gp130 formation). The method, then:
In the Tri-complex ELISA format IL-11 antibodies are tested for their ability to inhibit the formation of a complex consisting of murine or human gp130-Fc fusion protein, with murine or human IL-11, and a murine IL11RA-Fc fusion protein. The assay format was adapted according to FIG. 18 (a, b), depending on whether murine or human IL-11 IgG antibodies were tested.
The assay was performed using High Binding microtiter plates (Greiner, #781077). In a first step, 25 μl of goat anti human IgG (Sigma, #12136), diluted 1:1000 in coating buffer (Candor, #121125) was coated on the plate at 4° C. overnight. Next day, the plate was washed one time with 50 μl PBST and then blocked with 50 μl SmartBlock (Candor, #113125) for one hour at room temperature (RT). […] After three additional washes of the coated and blocked microtiter plate with PBS-T, 25 μl of each mixture were added and the assay plate was incubated for one hour at room temperature. After three additional washes, anti-mouse-gp130 biotinylated antibody (R&D, #BAF468) or anti-human gp130 biotinylated antibody (R&D, #BAF228), both 1:1000 in 10% SmartBlock PBS-T, was added and incubated for 1 hour at RT. After three additional washes, a Streptavidin-Peroxidase conjugate (Sigma, #S5512) 1:1000 in SmartBlock PBS-T was added and incubated for one hour at room temperature. […] Then, the fluorescence was measured with a plate reader at 535/595 nm. […]

In experiment [3] the target is T2, human IL-11. Nature of the experiment: Di-complex ELISA, murine IL11RA-Fc binding to immobilized hIL-11, competition.
For experiment [4], the target named is T2, human IL-11. Nature of the experiment: Di-complex ELISA, canine IL11RA-hFc binding to immobilized hIL-11, competition. The method, then:
In the Di-complex ELISA format anti IL-11 antibodies are tested for the ability to interfere with the formation of complexes consisting of immobilized murine IL-11 (Invigate, e.g., lot #C210819-09) or human IL-11 (Invigate, e.g., lot #C121021-19), and murine IL11RA-Fc fusion proteins or canine IL11RA-human-Fc fusion protein (FIG. 17a, b).
Bispecific antibodies were subjected to the experimental assay procedure described in Example 18 and IC50 [M], respectively efficacy (%) were calculated accordingly.

B1: TPP-18068 (antibody, mouse IgG1)
heavy: EVQLLESGGGLVQPGGSLRLSCAASGFTFSSYGMHWVRQAPGKGLEWVSVISYDGSYKYYADSVKGRFTISRDNSKNTLYLQMNSLRAEDTAVYYCAAGVPDYWGQGTLVTVSSAKTTPPSVYPLAPGSAAQTNSMVTLGCLVKGYFPEPVTVTWNSGSLSSGVHTFPAVLQSDLYTLSSSVTVPSSTWPSETVTCNVAHPASSTKVDKKIVPRDCGCKPCICTVPEVSSVFIFPPKPKDVLTITLTPKVTCVVVDISKDDPEVQFSWFVDDVEVHTAQTQPREEQFNSTFRSVSELPIMHQDWLNGKEFKCRVNSAAFPAPIEKTISKTKGRPKAPQVYTIPPPKEQMAKDKVSLTCMITDFFPEDITVEWQWNGQPAENYKNTQPIMDTDGSYFVYSKLNVQKSNWEAGNTFTCSVLHEGLHNHHTEKSLSHSPGK
light: QSVLTQPPSASGTPGQRVTISCTGSSSNIGAGYDVHWYQQLPGTAPKLLIYSNNERPSGVPDRFSGSKSGTSASLAISGLRSEDEADYYCAAWDDSLNGPVFGGGTKLTVLGQPKSSPSVTLFPPSSEELETNKATLVCTITDFYPGVVTVDWKVDGTPVTQGMETTQPSKQSNNKYMASSYLTLTARAWERHSSYSCQVTHEGHTVEKSLSRADCS
notes: mIgG1, Lambda
Molecule B1 registered a concentration for half-maximal inhibition (IC50) in the experiment with human IL-11 [1] of 12 nM.

B2: TPP-18068 (antibody, mouse IgG1)
heavy: B1 heavy
light: B1 light
notes: mIgG1, Lambda
As for B2, the concentration for half-maximal inhibition (IC50) with human IL-11 [2] came to 1700 nM.

B3: TPP-29697 (bispecific antibody, IgG1)
chain 1: QVQLVESGGGVVQPGRSLRLSCAASGFTFSHYDMHWVRQAPGKGLEWVAVISYHGSVKFYADSVKGRFTISRDNSKNTLYLQMNSLRAEDTAVYYCARTPGFHFDYWGQGTLVTVSSGGGGSGGGGSGGGGSQSVLTQPPSASGTPGQRVTISCSGSSSNIGSNYVSWYQQLPGTAPKLLIYYDDLRPSGVPDRFSGSKSGTSASLAISGLRSEDEADYYCSAWDDSLSGVVFGGGTKLTVLGGGGSGGGGSGGGGSGVECPPCPAPPVAGPSVFLFPPKPKDTLMISRTPEVTCVVVGVSHEDPEVKFNWYVDGVEVHNAKTKPREEQYNSTYRVVSVLTVLHQDWLNGKEYKCKVSNKQLPSPIEKTISKAKGQPREPQVYTLPPCRDELTKNQVSLWCLVKGFYPSDIAVEWESNGQPENNYKTTPPVLDSDGSFFLYSKLTVDKSRWQQGNVFSCSVMHEALHNHYTQKSLSLSPGK
chain 2: EVQLLESGGGLVQPGGSLRLSCAASGFTFSSYGMHWVRQAPGKGLEWVAVISYDGSYKYYADSVKGRFTISRDNSKNTLYLQMNSLRAEDTAVYYCAAGVPDYWGQGTLVTVSSGGGGSGGGGSGGGGSQSVLTQPPSASGTPGQRVTISCSGSSSNIGSDYDVHWYQQLPGTAPKLLIYSNEERPSGVPDRFSGSKSGTSASLAISGLRSEDEADYYCSAWDSSLSGPVFGGGTKLTVLGGGGSGGGGSGGGGSGVECPPCPAPPVAGPSVFLFPPKPKDTLMISRTPEVTCVVVGVSHEDPEVKFNWYVDGVEVHNAKTKPREEQYNSTYRVVSVLTVLHQDWLNGKEYKCKVSNKQLPSPIEKTISKAKGQPREPQVCTLPPSRDELTKNQVSLSCAVKGFYPSDIAVEWESNGQPENNYKTTPPVLDSDGSFFLVSKLTVDKSRWQQGNVFSCSVMHEALHNHYTQKSLSLSPGK
notes: scFv-kih-hIgG1 with Fc-silencing mutations; bispecific comprising CDRs of TPP-29528 and TPP-29519
Consider B3, for which the IC50 in the experiment with human IL-11 [3] turned out to be 1.6 nM.

B4: TPP-29603 (bispecific antibody, IgG1)
chain 1: QVQLVESGGGVVQPGRSLRLSCAASGFTFSHYDMHWVRQAPGKGLEWVAVISYHGSVKFYADSVKGRFTISRDNSKNTLYLQMNSLRAEDTAVYYCARTPGFHFDYWGQGTLVTVSSGGGGSGGGGSGGGGSQSVLTQPPSASGTPGQRVTISCSGSSSNIGSNYVSWYQQLPGTAPKLLIYYDDLRPSGVPDRFSGSKSGTSASLAISGLRSEDEADYYCSAWDDSLSGVVFGGGTKLTVLGGGGSGGGGSGGGGSGVECPPCPAPPVAGPSVFIFPPKPKDVLTITLTPKVTCVVVDISKDDPEVQFSWFVDDVEVHTAQTQPREEQFNSTFRSVSELPIMHQDWLNGKEFKCRVNSAAFPAPIEKTISKTKGRPKAPQVYTIPPCKEQMAKDKVSLWCMITDFFPEDITVEWQWNGQPAENYKNTQPIMDTDGSYFVYSKLNVQKSNWEAGNTFTCSVLHEGLHNHHTEKSLSHSPGK
chain 2: EVQLLESGGGLVQPGGSLRLSCAASGFTFSSYGMHWVRQAPGKGLEWVAVISYDGSYKYYADSVKGRFTISRDNSKNTLYLQMNSLRAEDTAVYYCAAGVPDYWGQGTLVTVSSGGGGSGGGGSGGGGSQSVLTQPPSASGTPGQRVTISCSGSSSNIGSDYDVHWYQQLPGTAPKLLIYSNEERPSGVPDRFSGSKSGTSASLAISGLRSEDEADYYCSAWDSSLSGPVFGGGTKLTVLGGGGSGGGGSGGGGSGVECPPCPAPPVAGPSVFIFPPKPKDVLTITLTPKVTCVVVDISKDDPEVQFSWFVDDVEVHTAQTQPREEQFNSTFRSVSELPIMHQDWLNGKEFKCRVNSAAFPAPIEKTISKTKGRPKAPQVCTIPPPKEQMAKDKVSLSCAITDFFPEDITVEWQWNGQPAENYKNTQPIMDTDGSYFVVSKLNVQKSNWEAGNTFTCSVLHEGLHNHHTEKSLSHSPGK
notes: scFv-kih-mIgG1; bispecific comprising CDRs of TPP-29528 and TPP-29519
In the case of B4, the IC50 in the experiment with human IL-11 [4] is 1.7 nM.
